Publication PMC6811625, “Protein folding while chaperone bound is dependent on weak interactions” (Nature Communications, 2019)

B1: wild-type Gallus gallus Fyn SH3 domain (T85-D142) (domain or fragment)
chain: not shown
notes: 7 residues added to the N terminus of the domain; Tyrosine-protein kinase Fyn, Gallus gallus, SH3 domain, residues T85-D142; a single arginine added to the C terminus of the domain; The same protein was measured native and unfolded (diluted from 9.5 M urea); the quantity of each row says which state; Primer 1 has a BamHI site (GGA TCC, Gly-Ser) before GAMVQIS, so further residues may remain after …
B2: SpyQ100L (natural protein, E. coli, UniProt P77754 24-161, looked up)
chain: ADTTTAAPADAKPMMHHKGKFGPHQDMMFKDLNLTDAQKQQIREIMKGQRDQMKRPPLEERRAMHDIIASDTFDKVKAEAQIAKMEEQRKANMLAHMETLNKIYNILTPEQKKQFNANFEKRLTERPAAKGKMPATAE
notes: Spy of E. coli with Q100L; also called Spy variant Q100L; source: E. coli BL21 (DE3), purified (Ni-His Trap, HiTrap Q, Superdex 75); not shown: His, N-terminal, cleaved; SUMO, N-terminal, cleaved
B3: wild-type Spy (natural protein, E. coli, UniProt P77754 24-161, looked up)
chain: ADTTTAAPADAKPMMHHKGKFGPHQDMMFKDLNLTDAQKQQIREIMKGQRDQMKRPPLEERRAMHDIIASDTFDKVKAEAQIAKMEEQRKANMLAHMETQNKIYNILTPEQKKQFNANFEKRLTERPAAKGKMPATAE
notes: ATP-independent periplasmic chaperone Spy of E. coli; also called SpyWT; Spy dimer; source: E. coli BL21 (DE3), purified (Ni-His Trap, HiTrap Q, Superdex 75); not shown: His, N-terminal, cleaved; SUMO, N-terminal, cleaved
B4: SpyH96L (natural protein, E. coli, UniProt P77754 24-161, looked up)
chain: ADTTTAAPADAKPMMHHKGKFGPHQDMMFKDLNLTDAQKQQIREIMKGQRDQMKRPPLEERRAMHDIIASDTFDKVKAEAQIAKMEEQRKANMLALMETQNKIYNILTPEQKKQFNANFEKRLTERPAAKGKMPATAE
notes: Spy of E. coli with H96L; also called Spy variant H96L; source: E. coli BL21 (DE3), purified (Ni-His Trap, HiTrap Q, Superdex 75); not shown: His, N-terminal, cleaved; SUMO, N-terminal, cleaved

How the values were obtained:
Conditions in all cases: both partners purified
wild-type Spy [1] = molecular target: B3; assay: ITC; MicroCal iTC200, 25 °C; HN buffer (40 mM HEPES pH 7.5, 50 mM NaCl) with 0.83 M urea; 2.4 mM SH3 in the syringe titrated into 100 μM Spy or Spy variant in the cell; one-site model; native SH3
wild-type Spy [2] = molecular target: B3; assay: as above; remark: listed apart in the source
SpyH96L = molecular target: B4; assay: as above
SpyQ100L = molecular target: B2; assay: as above
[3] = molecular target: B1; assay: stopped-flow tryptophan fluorescence kinetics with global fitting; KinTek SF-300X, 25 °C; HN buffer, 0.83 M urea after mixing; 4.8 μM SH3, refolded from 9.5 M urea or native, mixed 1:10.5 with varied Spy (concentrations as dimer); global fit (KinTek Explorer) to the mechanism that allows folding while bound; k-3 fixed at 1000 s^-1

Binder: B1
- stoichiometry N (wild-type Spy [1]): 1
- Kd (wild-type Spy [2]): 50 ± 6 µM
- Kd (SpyH96L): 71 ± 19 µM
- Kd (SpyQ100L): 107 ± 25 µM

Binder: B2
- Kd (native SH3) [3]: 17 ± 1 µM
- Kd (unfolded SH3) [3]: 0.04 ± 0.003 µM
- k2 (association, unfolded SH3) [3]: 1.71e+08 ± 8e+06 M⁻¹ s⁻¹
- k3 (association, native SH3) [3]: 6e+07 ± 2e+06 M⁻¹ s⁻¹
- k-2 (dissociation, unfolded SH3) [3]: 6.8 ± 0.3 s⁻¹

Binder: B3
- Kd (native SH3) [3]: 83 ± 55 µM
- Kd (unfolded SH3) [3]: 2.9 ± 0.3 µM
- k2 (association, unfolded SH3) [3]: 1.4e+07 ± 1e+06 M⁻¹ s⁻¹
- k3 (association, native SH3) [3]: 1.2e+07 ± 8e+06 M⁻¹ s⁻¹
- k-2 (dissociation, unfolded SH3) [3]: 39 ± 3 s⁻¹

Binder: B4
- Kd (native SH3) [3]: 11 ± 1 µM
- Kd (unfolded SH3) [3]: 0.76 ± 0.05 µM
- k2 (association, unfolded SH3) [3]: 2.3e+07 ± 1e+06 M⁻¹ s⁻¹
- k3 (association, native SH3) [3]: 9.1e+07 ± 1e+07 M⁻¹ s⁻¹
- k-2 (dissociation, unfolded SH3) [3]: 17.4 ± 0.7 s⁻¹
